# Experimental data: publication PMC12344693, “Human Milk Oligosaccharides Multivalently Presented on Defined Synthetic Neo-Glycoproteins Are Nanomolar Ligands of Tandem-Repeat Galectins” (Biomacromolecules, 2025)
# Like-named read-outs stand apart in the source and are kept apart here.
# Columns and labels:
# [1] = biological target: T1, Gal-4N (Homo sapiens, UniProt P56470); assay: direct ELISA, galectin binding to immobilized asialofetuin; settings: AVI-tagged Gal-4N, read-out: KD for ASF, AVI-tag
# T1 construct: Tandem-repeat galectins consist of an N-terminal and a C-terminal carbohydrate recognition domain (CRD) interconnected with a peptide linker; His-tag; made in house; host or cells: E. coli
# T1 sequence (P56470 19-150 limits assumed): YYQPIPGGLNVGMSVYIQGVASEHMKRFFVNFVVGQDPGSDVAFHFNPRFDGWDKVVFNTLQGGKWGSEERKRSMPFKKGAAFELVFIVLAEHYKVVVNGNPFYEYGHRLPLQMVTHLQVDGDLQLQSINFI
# Description: (§1) detailed in the main text.
# (§2) respective galectin in EPBS (50 μL/well).
# [2] = biological target: T2, Gal-8C (Homo sapiens, UniProt O00214); assay: as above; settings: AVI-tagged Gal-8C, read-out: KD for ASF, AVI-tag
# T2 construct: Tandem-repeat galectins consist of an N-terminal and a C-terminal carbohydrate recognition domain (CRD) interconnected with a peptide linker; His-tag; made in house; host or cells: E. coli
# T2 sequence (O00214 187-317 limits assumed): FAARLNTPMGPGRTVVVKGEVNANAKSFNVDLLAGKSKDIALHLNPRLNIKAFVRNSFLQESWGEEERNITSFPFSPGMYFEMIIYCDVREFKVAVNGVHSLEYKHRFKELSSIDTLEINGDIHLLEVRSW
# Description: as §1, §2
# [3] = biological target: T3, Gal-4C (Homo sapiens, UniProt P56470); assay: as above; settings: AVI-tagged Gal-4C, read-out: KD for ASF, AVI-tag
# T3 construct: Tandem-repeat galectins consist of an N-terminal and a C-terminal carbohydrate recognition domain (CRD) interconnected with a peptide linker; His-tag; made in house; host or cells: E. coli
# T3 sequence (P56470 194-323 limits assumed): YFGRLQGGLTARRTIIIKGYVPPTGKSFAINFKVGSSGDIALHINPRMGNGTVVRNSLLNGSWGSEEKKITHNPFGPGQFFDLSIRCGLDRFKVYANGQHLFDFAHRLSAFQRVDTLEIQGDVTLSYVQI
# Description: as §1, §2
# [4] = biological target: T4, Gal-8 (Homo sapiens, UniProt O00214); assay: as above; settings: AVI-tagged Gal-8, read-out: KD for ASF, AVI-tag
# T4 construct: Full-length recombinant human galectins (Gal-1, Gal-3, Gal-4, Gal-8, and Gal-9) for ELISA assays; made in house; host or cells: E. coli Rosetta 2(DE3)pLysS
# T4 sequence (O00214 1-317): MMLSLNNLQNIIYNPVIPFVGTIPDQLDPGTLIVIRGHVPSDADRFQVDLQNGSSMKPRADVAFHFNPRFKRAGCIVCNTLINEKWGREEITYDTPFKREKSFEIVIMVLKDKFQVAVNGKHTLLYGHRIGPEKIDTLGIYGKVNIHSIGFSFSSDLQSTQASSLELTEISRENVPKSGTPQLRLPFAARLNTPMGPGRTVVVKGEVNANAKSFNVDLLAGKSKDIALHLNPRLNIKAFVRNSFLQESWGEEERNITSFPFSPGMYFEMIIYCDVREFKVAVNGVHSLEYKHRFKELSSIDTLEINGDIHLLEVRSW
# Description: as §1, §2
# [5] = biological target: T5, Gal-9 (Homo sapiens, UniProt O00182, A222P/DEL149-219); assay: as above; settings: AVI-tagged Gal-9, read-out: KD for ASF, AVI-tag
# T5 construct: Full-length recombinant human galectins (Gal-1, Gal-3, Gal-4, Gal-8, and Gal-9) for ELISA assays; made in house; host or cells: E. coli Rosetta 2(DE3)pLysS
# T5 sequence (O00182 with tags, fused parts or gaps DEL149-219/A222P): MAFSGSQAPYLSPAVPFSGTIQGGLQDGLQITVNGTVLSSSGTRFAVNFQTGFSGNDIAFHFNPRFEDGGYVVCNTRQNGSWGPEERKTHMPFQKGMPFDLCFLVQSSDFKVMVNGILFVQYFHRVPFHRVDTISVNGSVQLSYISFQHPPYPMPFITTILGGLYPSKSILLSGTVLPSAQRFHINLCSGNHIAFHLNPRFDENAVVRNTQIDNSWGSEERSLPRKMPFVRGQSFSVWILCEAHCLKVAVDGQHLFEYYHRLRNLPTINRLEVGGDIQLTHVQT
# Description: as §1, §2
# [6] = biological target: T6, Gal-4 (Homo sapiens, UniProt P56470); assay: as above; settings: AVI-tagged Gal-4, read-out: KD for ASF, AVI-tag
# T6 construct: Full-length recombinant human galectins (Gal-1, Gal-3, Gal-4, Gal-8, and Gal-9) for ELISA assays; made in house; host or cells: E. coli Rosetta 2(DE3)pLysS
# T6 sequence (P56470 1-323): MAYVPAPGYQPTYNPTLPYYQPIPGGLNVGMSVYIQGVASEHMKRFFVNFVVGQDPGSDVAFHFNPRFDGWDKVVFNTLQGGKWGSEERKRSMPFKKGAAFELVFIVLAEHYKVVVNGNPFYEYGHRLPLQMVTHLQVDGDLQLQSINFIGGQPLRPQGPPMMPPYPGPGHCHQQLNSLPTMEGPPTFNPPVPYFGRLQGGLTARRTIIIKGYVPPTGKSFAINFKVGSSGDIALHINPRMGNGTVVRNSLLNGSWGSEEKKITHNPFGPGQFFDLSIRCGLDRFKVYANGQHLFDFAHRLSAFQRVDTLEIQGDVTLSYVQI
# Description: as §1, §2
# [7] = biological target: T7, Gal-9C (Homo sapiens, UniProt O00182, A222P); assay: as above; settings: AVI-tagged Gal-9C, read-out: KD for ASF, AVI-tag
# T7 construct: Tandem-repeat galectins consist of an N-terminal and a C-terminal carbohydrate recognition domain (CRD) interconnected with a peptide linker; His-tag; made in house; host or cells: E. coli
# T7 sequence (O00182 220-355 A222P): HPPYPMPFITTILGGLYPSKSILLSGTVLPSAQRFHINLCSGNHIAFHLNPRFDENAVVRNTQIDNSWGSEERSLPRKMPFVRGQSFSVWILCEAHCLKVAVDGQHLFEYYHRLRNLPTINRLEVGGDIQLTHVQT
# Description: as §1, §2
# [8] = biological target: T8, Gal-9N (Homo sapiens, UniProt O00182, DELINS149-222HPP); assay: as above; settings: AVI-tagged Gal-9N, read-out: KD for ASF, AVI-tag
# T8 construct: Tandem-repeat galectins consist of an N-terminal and a C-terminal carbohydrate recognition domain (CRD) interconnected with a peptide linker; His-tag; made in house; host or cells: E. coli
# T8 sequence (O00182 with tags, fused parts or gaps DELINS149-222HPP): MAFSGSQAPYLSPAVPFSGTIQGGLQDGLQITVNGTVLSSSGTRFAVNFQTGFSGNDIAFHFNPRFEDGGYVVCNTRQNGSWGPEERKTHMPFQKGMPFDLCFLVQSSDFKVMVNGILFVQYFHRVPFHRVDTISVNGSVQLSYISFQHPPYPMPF
# Description: as §1, §2
# [9] = biological target: T9, Gal-8N (Homo sapiens, UniProt O00214); assay: as above; settings: AVI-tagged Gal-8N, read-out: KD for ASF, AVI-tag
# T9 construct: Tandem-repeat galectins consist of an N-terminal and a C-terminal carbohydrate recognition domain (CRD) interconnected with a peptide linker; His-tag; made in house; host or cells: E. coli
# T9 sequence (O00214 19-152 limits assumed): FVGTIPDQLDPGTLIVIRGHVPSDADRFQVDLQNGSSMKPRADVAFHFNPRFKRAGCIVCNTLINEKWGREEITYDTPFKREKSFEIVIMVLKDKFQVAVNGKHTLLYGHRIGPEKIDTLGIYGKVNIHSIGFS
# Description: as §1, §2
# [10] = biological target: T9, Gal-8N; design: method as in ref 19 (a number printed in a supplementary file, which may have a reference list of its own: not looked up in the article's list); settings: direct ELISA; His-tagged Gal-8N; read-out: KD for ASF, His-tag; cited from earlier work
# [11] = biological target: T4, Gal-8; design: method as in ref 19 (a number printed in a supplementary file, which may have a reference list of its own: not looked up in the article's list); settings: direct ELISA; His-tagged Gal-8; read-out: KD for ASF, His-tag; cited from earlier work
# [12] = biological target: T8, Gal-9N; design: method as in ref 19 (a number printed in a supplementary file, which may have a reference list of its own: not looked up in the article's list); settings: direct ELISA; His-tagged Gal-9N; read-out: KD for ASF, His-tag; cited from earlier work
# [13] = biological target: T5, Gal-9; design: method as in ref 19 (a number printed in a supplementary file, which may have a reference list of its own: not looked up in the article's list); settings: direct ELISA; His-tagged Gal-9; read-out: KD for ASF, His-tag; cited from earlier work
# [14] = biological target: T7, Gal-9C; design: method as in ref 19 (a number printed in a supplementary file, which may have a reference list of its own: not looked up in the article's list); settings: direct ELISA; His-tagged Gal-9C; read-out: KD for ASF, His-tag; cited from earlier work
# [15] = biological target: T1, Gal-4N; design: method as in ref 11 (a number printed in a supplementary file, which may have a reference list of its own: not looked up in the article's list); settings: direct ELISA; His-tagged Gal-4N; read-out: KD for ASF, His-tag; cited from earlier work
# [16] = biological target: T2, Gal-8C; design: method as in ref 19 (a number printed in a supplementary file, which may have a reference list of its own: not looked up in the article's list); settings: direct ELISA; His-tagged Gal-8C; read-out: KD for ASF, His-tag; cited from earlier work
# [17] = biological target: T3, Gal-4C; design: method as in ref 11 (a number printed in a supplementary file, which may have a reference list of its own: not looked up in the article's list); settings: direct ELISA; His-tagged Gal-4C; read-out: KD for ASF, His-tag; cited from earlier work
# [18] = biological target: T6, Gal-4; design: method as in ref 11 (a number printed in a supplementary file, which may have a reference list of its own: not looked up in the article's list); settings: direct ELISA; His-tagged Gal-4; read-out: KD for ASF, His-tag; cited from earlier work
substance,measurement,setting,value
"ASF: asialofetuin, glycoprotein immobilized on ELISA plates as galectin ligand",Kd,[1],17 ± 2 µM
same,Kd,[2],11 ± 2 µM
same,Kd,[3],6.5 ± 1.2 µM
same,Kd,[4],0.32 ± 0.13 µM
same,Kd,[5],0.18 ± 0.05 µM
same,Kd,[6],2.3 ± 0.8 µM
same,Kd,[7],4.9 ± 0.4 µM
same,Kd,[8],11 ± 4 µM
same,Kd,[9],4.6 ± 1.3 µM
same,Kd,[10],2.3 ± 0.5 µM
same,Kd,[11],0.14 ± 0.06 µM
same,Kd,[12],25 ± 6 µM
same,Kd,[13],0.15 ± 0.04 µM
same,Kd,[14],3.6 ± 0.5 µM
same,Kd,[15],38 ± 3 µM
same,Kd,[16],9.4 ± 0.4 µM
same,Kd,[17],19 ± 2 µM
same,Kd,[18],3.3 ± 1.1 µM
